# According to paper PMC12173652:
# Molecular target: epidermal growth factor receptor (EGFR) (human (endogenous in HeLa)) (UniProt P00533)
substance,measurement,value
"pIII::EGF fusion displayed on the helper phage M13SW7-EGF (epidermal growth factor, GGGS linker, M13 minor coat protein pIII) (from UniProt P69168 19-424)","fold difference in luciferase expression (EGF^+/EGF^−), A549, mini phagemid, +TurboFect, 96 h",9.96 fold
same,"fold difference in luciferase expression (EGF^+/EGF^−), HeLa, full phagemid, +TurboFect, 96 h",261 fold
same,"fold difference in luciferase expression (EGF^+/EGF^−), HeLa, mini phagemid, +TurboFect, 96 h",705 fold
same,"fold difference in luciferase expression (EGF^+/EGF^−), HeLa, mini phagemid, −TurboFect, 96 h",25.6 fold
same,"fold difference in luciferase expression (EGF^+/EGF^−), MRC-5, full phagemid, −TurboFect, 96 h",4.14 fold
same,"fold difference in luciferase expression (EGF^+/EGF^−), MRC-5, mini phagemid, +TurboFect, 96 h",5.73 fold
